Data as given in the DeepSol protein solubility set.

Experiment: soluble on expression in E. coli; label from the status in PepcDB or PDB records

Question: Which “soluble on expression in E. coli” value does the source give for “MTASSPNRARTSLAAYASAGPVSLPAGSTRTVASGTSSRTRSAYASRVTASRSSAKAARSAVRRSRLRSSSPSASSCLGRWLRLAGYSRVPVPPASRTAATVCVTARSPGGWSACRRVRRRGPNACLRGASDRVHPGCGDLKGVGSKHRYVSHRNTRGDGYTTMSDLSDTAQEVHDDLSEHVDATVDDVEARLEKLVSEYKVPVDEARRSVENHYLDEAGLDRDDLAGGGGNDTVEVEDVDEAEQWVDITAKVVELWEPRSDSVGQVGLLGDPTGTIKFTKWAKSDLETLDEGQVYRLGNVVTDEYQGRYSVKLNKTTSIEAVDEEFEVGDNEDEVAGALVDVQSGSGLIKRCPEEDCTRVLQNGRCNEHGEGDGEFDLRIKGVLDDGTDVHEVIFDEEATEALTGIGLEEAKQMAKDALDTTVVADEMRATILGKYYRVTGPTFGRYVLANDTELLTTRPDTESVLIRARSILEHHHHHH” here?
Answer: The value was “not soluble”.

Question: For “MTDICMLKTMDSRNTNEAKQEPKTMVWWDINSCPVPDGYDARMVAHSIESELKKAGYPGPLTITAIGYLNTPLMCM”, which “soluble on expression in E. coli” value is on record?
Answer: The value was “not soluble”.

Question: Which “soluble on expression in E. coli” value does the source give for “MTDIPHDHPRYESLLAREKVAAGVKMGITSIQGLIAQGRGESFDYLIGERSTESALYAERAAVAALLLAENPVISVNGNVAALAPDKVVTLADITGARIEVNLFHRTDTRVHLIIEQLKASGAAEVLGKNPDASLELSHDRRLVSSKGIYTADVVLVPLEDGDRCEKLVEMGKTVITIDLNPLSRTSKTATISIVDNLTRALGNMAKFAQEMKKERKEELVKLITTYDNKRTLSEAISEIQEHLKTMAAETGLEHHHHHH” here?
Answer: Its value is “soluble”.

Question: With “MTDKDLLHQKYYHGLLPREDIQEMLNKPGQFLLRTSEPVKGEKRQFVLSVVGEKNTSANHFVVREADHKVYVDKIGFPTIIELVNHYVSTKESFSTKDGTVKVVLKHAVERQKWELYHEDVELTKKLGEGAFGEVWKGKLLKILDANHQPVLVAVKTAKLESMTKEQIKEIMREARLMRNLDHINVVKFFGVAAGTEPLYVIMELADGGALDSALGKLHFPMIKKYELIYQAANGLAYIHEKNLMHRDVAARNCLYGGGQVKIADFGLSREGADYTMDLKKKVPIRWLPPETIRSGLYTPKTDVFAFGVMAWEITEDGKEPYPGFKVIEVAMKVLQGYRMPFSPEVNKEFAEFILTKCWPEKYEDRLPMKDICKWMKSSVKAQGGDTGPGGMMSKFGKKIKRSNSRESKSKSSTMTAAHGHDQGAMTAIEK” as the sequence, how does the “soluble on expression in E. coli” value read?
Answer: The value was “not soluble”.

Question: With “MTDPARMVELWRGGLLESWHTGHAAVWSADGGLVEAWGDPGTVIFPRSSCKMMQALPLLESGAGAGLSSQRLALACASHQGAELHTGHVGRWLTDLGLCEADLRCGAHMPADTAERDRLIRAYEEPCQIHNNCSGKHAGFLMLSQHLKAGPEYVEIDHPVQQAVRTAFEEVTDEASPGYGIDGCSAPNFATTVAGLARAMAFFAGASTGGGVRERSAARLVEAMIAHPELVAGEGRACTELMRAMGGRAAIKTGAEAVFVAIVPEKRLGIALKIVDGSTRASEAAIAALLVRHGLLDPAHPAARKRLDAIQTNWRGRETGILRAAPGFPLEHHHHHH” as the sequence, how does the “soluble on expression in E. coli” value read?
Answer: The value was “not soluble”.

Question: With “MTDQGLEGSNPVDLSKHPSGIVPTLQNIVSTVNLDCKLDLKAIALQARNAEYNPKRFAAVIMRIREPKTTALIFASGKMVCTGAKSEDFSKMAARKYARIVQKLGFPAKFKDFKIQNIVGSCDVKFPIRLEGLAYSHAAFSSYEPELFPGLIYRMKVPKIVLLIFVSGKIVITGAKMRDETYKAFENIYPVLSEFRKIQQ” as the sequence, how does the “soluble on expression in E. coli” value read?
Answer: The value was “soluble”.

Question: Which “soluble on expression in E. coli” value does the source give for “MTDTNTLLVTSLEEGIGKTAITLALATRAHDAGYDVGYMKPKGTRLRSAVGKTRDEDPMLARELLDLETDLHDMEPIVYSPTFIQEAIRGREDPDDLRERLQEGIETCSDGTDMLLVEGSSDLATGSIVDLTDIDIAELLDARVLLVTGYDTPSDTDEILSAAEAIGDRLDGVLFNGVTDATVDELADDVVPFLEGEGIPVHGILPRDRSLAGVTVADLARNLGADILTGDANTDVHVERFSVGAMSGSSALERFRRTRDAVVVTGGDRSEVQTAALEASGINALLLTGGFQPASAVIGQAAEKNVPVLSVQSDTRTTIDRVEEVLRTGQTRNEATVDRMRTLLDDGVDVESLLSVDLLEHHHHHH” here?
Answer: Its value is “soluble”.

Question: For “MTDYDSLDDNAFRLMVREWIAANYPQRIRNPPRRLGREETREWYLLLSRQGWLCPGWPREYGGMGLSAGKQLIMMEEMEEYGCARLPDSGVTMLGPLLIRYGDEAQRARFLPRILSGEDIWCQGYSEPNAGSDLASLRTEARLENGEWVINGQKTWTTMGSEANWIFLLVRTERSAKAQHGISFLLVPMDSLGIEVRPILNLELHGEFCEVFFNDVRVPYDSLVGEINQGWSMAKALLGFERIFLGSPKQSTFALQRLERLARHLGLWHDPLFARRFAALSMDLDSHKALYERFAERLRRGESLGPEVSMLKIFQSELFQRISELGLEIAGEDSALLQPFAEDPELHPAGIFIQSRPTTIYGGSNEIQRNILAKSVLGLPG”, which “soluble on expression in E. coli” value is on record?
Answer: The value was “not soluble”.

Question: With “MTDYFTAHDVLKKVEGLNSLSTLNKWANFIQKECDYQFHYDYIRFASHTRTKRTINHRKTRMFSLEEIQKFQKVIKLIPILGRNTSLRKLFDKKHHLDTMNHSELLTEIINQIEVKLANKEELFQALTKKYQQLERSYQTLEQRLAQLEESLSTQEQTSSGWFRRKR” as the sequence, how does the “soluble on expression in E. coli” value read?
Answer: Its value is “not soluble”.

Question: With “MTDYGDADKYVNDESIEMAWAIKAGERSEVHMNLIMRCDTRVLRLNKHQDAILAAFRSSFPDLNVEEVTTSLLKDGGAKETWREFCEQFKDIVDDYSMGTLMRIHASKAYSPENTVVVPRIIYLAIEMARNVEGVNEKNKEAYTAHRNSLASL” as the sequence, how does the “soluble on expression in E. coli” value read?
Answer: Its value is “soluble”.

Question: Which “soluble on expression in E. coli” value does the source give for “MTEHTAPTAPVADVCLLLEGTWPYVRGGVSSWVNQLILGLPDLTFSVFFIGGQKDAYGKRHYPIPDNVLHIEEHFLETAWSSPNPQTRQGSSETEKALRDLHRFFHYPETPDVEEGDALLDLLAEGRIGREDFLHSKASWEAITAGYERYCTDPSFVNYFWTLRSMQAPVFMLAEAARRMPRARMLHSISTGYAGLLGCILQRRWGCRYLLSEHGIYTKERKIDLAQANWIAENPDEQLSTGLDAEVSYIRRLWIRFFERVGLLTYRAANPIVALYEGNRQRQVLDGAEPRRTRVIPNGIDLDAWTGALERRPPGIPPVVGLVGRVVPIKDVKTFIRAMRGVVSAMPEAEGWIVGPEEEDPDYASECRSLVASLGLQDKVKFLGFRRIGEVLPQLGLMVLTSISEAQPLVILEAWAAGAPVVSSDVGSCRELIEGADAEDRALGRAGEVVAIADPQATSRAILALLRNPQRWQAAQAVGLQRVERYYTEALMLGRYRGLYREATEIA” here?
Answer: Its value is “not soluble”.

Question: Which “soluble on expression in E. coli” value does the source give for “MTEKTTVKTLKDVVVRFCGDSGDGMQLTGTIFSDLSAVFGNTISTFPDYPAEIRAPQGTLGGVSGFQVHIGTDLVRTPGDLADVLVAMNPAALKVNRTHVRRDSIIIIDSDSFMASDLEKAEIASEDFMTELGLTTQELFTVPISSMVKKSTAEFGLDVKAALRCKNMFALGLVCWLFDRPTQHAIDYLNRKFGKKEAILNANIKALADGFNYGHNTHATATTYRIEGRKQTPGVYMDISGNKATAYGLVAAAEHANLNL” here?
Answer: Its value is “soluble”.

Question: Which “soluble on expression in E. coli” value does the source give for “MTELKNDRYLRALLRQPVDVTPVWMMRQAGRYLPEYKATRAQAGDFMSLCKNAELACEVTLQPLRRYPLDAAILFSDILTVPDAMGLGLYFEAGEGPRFTSPVTCKADVDKLPIPDPEDELGYVMNAVRTIRHELKGEVPLIGFSGSPWTLATYMVEGGSSKAFTVIKKMMYADPQALHALLDKLAKSVTLYLNAQIKAGAQAVMIFDTWGGVLTGRDYQQFSLYYMHKIVDGLLRENDGRRVPVTLFTKGGGQWLEAMAETGCDALGLDWTTDIADARRRVGNKVALQGNMDPSMLYAPPARIEEEVATILAGFGHGEGHVFNLGHGIHQDVPPEHAGVFVEAVHRLSEQYHR” here?
Answer: Its value is “soluble”.

Question: For “MTELPLQFAEPDDDLERVRATLYSLDPDGDRTAGVLRDTLDQLYDGQRTGRWNFDQLHKTEKTHMGTLVEINLHREFQFGDGFETDYEIAGVQVDCKFSMSQGAWMLPPESIGHICLVIWASDQQCAWTAGLVKVIPQFLGTANRDLKRRLTPEGRAQVVKLWPDHGKLQENLLLHIPGDVRDQIFSAKSSRGNQHGQARVNELFRRVHGRLIGRAVIATVAQQDDFMKRVRGSGGARSILRPEGIIILGHQDNDPKVANDLGLPVPRKGQVVAARVVPADEGDQRQTAEIQGRRWAVAVPGDPIVEAPVVPRKSAE”, which “soluble on expression in E. coli” value is on record?
Answer: Its value is “soluble”.

Question: With “MTENLLAERHALRWVFLYEFPQICNCNEARRNMCAVLGKNSVTYNTMKFWFEKFTKKNYDLDDKPR” as the sequence, how does the “soluble on expression in E. coli” value read?
Answer: The value was “soluble”.

Question: For “MTERFFAPCPRGLETVLAAELERLDATSIQASPGGVGFHGNWQTCYRANLESRIASRILWQIAKDQYRSEADIYDLTHSLPWQDWFEPRLSIKVNLAAIKCPLRSLDFVTLRIKDAVCDKFRAIHGKRPDIDTVAPDMRIHGFLNAQEFTLYLDTSGEALFKRGLRQTQGEAPLRENLAAGILALTGWQPGTPLLDPMCGSGTLLLEAAQIACRIAPGSGRQFAFEQLKLFDARSWKKLKQTATERQHERTFQSIYGSDLYGSALAHTRNNLAAAGLAECVTLKQANVLEISAPAETGILVSNPPYGVRIGDHQMLAEFYPRLGDVLKQRFSGWRAFLLTADPLLAKSIRLTPSRRTPLFNGALECRLLEYRLVAGSMRREKQPSSESSTNQPIT”, which “soluble on expression in E. coli” value is on record?
Answer: Its value is “not soluble”.

Question: Which “soluble on expression in E. coli” value does the source give for “MTERLKVMTIFGTRPEAIKMAPLVLELQKHPEKIESIVTVTAQHRQMLDQVLSIFGITPDFDLNIMKDRQTLIDITTRGLEGLDKVMKEAKPDIVLVHGDTTTTFIASLAAFYNQIPVGHVEAGLRTWDKYSPYPEEMNRQLTGVMADLHFSPTAKSATNLQKENKDESRIFITGNTAIDALKTTVKETYSHPVLEKLGNNRLVLMTAHRRENLGEPMRNMFRAIKRLVDKHEDVQVVYPVHMNPVVRETANDILGDYGRIHLIEPLDVIDFHNVAARSYLMLTDSGGVQEEAPSLGVPVLVLRDTTERPEGIEAGTLKLAGTDEETIFSLADELLSDKEAHDKMSKASNPYGDGRASERIVEAILKHFNK” here?
Answer: The value was “not soluble”.

Question: Which “soluble on expression in E. coli” value does the source give for “MTERLLVGVIVGSHGVRGLVRVKSFTQDEMALCDYGPLSDETGTRRFAVEVRNQAKGVVICQIPGVSDRTAADALKGTRLFLDRAALPADALEEDEYYHADLIGLPVDLVDGGRLGVVHSVHDFGAGDMLEVTLAQGRRSVLLPFTKAVVPLVDVKAGRLVADPPLGLLDDTRPPAGVEGEVEEDPGVGIDEDGDGKGGASLEHHHHHH” here?
Answer: The value was “soluble”.

Question: With “MTESDDHKLVLAISSRALFDLRDSHAVYMAEGVEAYRKYQIEHEDEILERGDAFTLVEKLLNLNASLSKARVEVVLVSRNSADTGLRVFNSIQHYGLDIARAAFAGGRSPYPYLAAFGCHLFLSTHAEDVRSALDAGFAAATILSGGARRAASAELRIAFDGDAVLFSDESERVYQSGGLAAFQASERESAREPLRGGPFKPFLAALNQLQREFPDASCPIRTALVTARSAPAHERVIRTLREWDIRLDESLFLGGLQKSAFLEAFAADVFFDDQPGHCEKAREVVATGHVPHGISNEIIPFDGGGAAALEHHHHHH” as the sequence, how does the “soluble on expression in E. coli” value read?
Answer: Its value is “not soluble”.

Question: With “MTESVARLRGEQLTLGYGKYTVAENLTVEIPDGHFTAIIGPNGCGKSTLLRTLSRLMTPAHGHVWLDGEHIQHYASKEVARRIGLLAQNATTLGDITVQELVARGRYPHQPLFTRWRKEDEEAVTKAMQATGITHLADQSVDTLSGGQRQRAWIAMVLAQETAIMLLDEPTTWLDISHQIDLLELLSELNREKGYTLAAVLHDLNQACRYASHLIALREGKIVAQGAPKEIVTAELIERIYGLRCMIIDDPVAGTPLVVPLGRTAPSTANS” as the sequence, how does the “soluble on expression in E. coli” value read?
Answer: The value was “not soluble”.

Question: With “MTETYVLAESPEFYQDNVTDYTGQISSSDITNIQAAIDDVKASEQKVIFVVFLSSFDGVDPETWTQQALQANGGGNVLIYALAPEERQYGIQGGTQWTDAELDAANNAAFQALSQEDWAGSALALAESVGSSSSSSSGSSSLEHHHHHH” as the sequence, how does the “soluble on expression in E. coli” value read?
Answer: The value was “soluble”.

Question: For “MTEVIAYLIEHFQDFDTCPPPEDLGMLLEEAGFDTMEIGNTLMMMEVLLNSSEFSAEPADSGALRVYSKEETDNLPQEVMGLMQYLIEEKAVSCEQREIIIHALMHIPGDEITVDTAKVLTLLLLWANKSELPVLVGDELMSALLLDNKPTMN”, which “soluble on expression in E. coli” value is on record?
Answer: Its value is “not soluble”.
